From patent publication US20150252117A1 (Genentech, published 2015) come the findings set out here.

Experiment [1] concerns the target T1, murine Delta-like 1 (DSL-EGF1-4 fragment) (mouse, UniProt Q61483 18-367, limits assumed).
T1 construct: domain: DSL-EGF1-4; Recombinant purified Notch ligand; also called murine DLL1; mouse DLL1
The experiment can be described thus: ELISA, Notch ligand coated at 1 ug/ml, serial 3-fold dilutions of IgG, anti-human Fab-peroxidase, A630 [left panel, A-2]. (An ELISA detects its analyte on a solid surface through an enzyme-linked reagent.)

Experiment [2] concerns the target T2, Human Jag2-DSL-EGF1-4 (human, UniProt Q9Y219 24-388).
T2 construct: also called human Jagged2; hJag2
T2 sequence: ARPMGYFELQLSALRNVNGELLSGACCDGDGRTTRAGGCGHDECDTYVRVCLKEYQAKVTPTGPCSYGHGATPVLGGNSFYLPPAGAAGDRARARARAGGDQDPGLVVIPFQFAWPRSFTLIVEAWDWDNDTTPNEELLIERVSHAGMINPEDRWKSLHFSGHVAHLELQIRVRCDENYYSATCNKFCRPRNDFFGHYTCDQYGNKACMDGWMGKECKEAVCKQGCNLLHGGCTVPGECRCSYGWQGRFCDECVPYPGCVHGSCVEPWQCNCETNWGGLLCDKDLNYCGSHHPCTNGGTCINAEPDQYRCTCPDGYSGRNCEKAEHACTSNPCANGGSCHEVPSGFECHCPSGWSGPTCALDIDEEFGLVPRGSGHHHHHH
The experiment is described as above.

Experiment [3] addresses T3, human Delta-like 4 (DSL-EGF1-4 fragment) (human, UniProt Q9NR61 27-365, limits assumed).
T3 construct: domain: DSL-EGF1-4; Recombinant purified Notch ligand; also called human DLL4; hDLL4
The description is as above.

The target in experiment [4] is T4, Murine Jag2-DSL-EGF1-4 (mouse, UniProt Q9QYE5 27-388).
T4 construct: also called murine Jagged2; Mouse Jag2
T4 sequence: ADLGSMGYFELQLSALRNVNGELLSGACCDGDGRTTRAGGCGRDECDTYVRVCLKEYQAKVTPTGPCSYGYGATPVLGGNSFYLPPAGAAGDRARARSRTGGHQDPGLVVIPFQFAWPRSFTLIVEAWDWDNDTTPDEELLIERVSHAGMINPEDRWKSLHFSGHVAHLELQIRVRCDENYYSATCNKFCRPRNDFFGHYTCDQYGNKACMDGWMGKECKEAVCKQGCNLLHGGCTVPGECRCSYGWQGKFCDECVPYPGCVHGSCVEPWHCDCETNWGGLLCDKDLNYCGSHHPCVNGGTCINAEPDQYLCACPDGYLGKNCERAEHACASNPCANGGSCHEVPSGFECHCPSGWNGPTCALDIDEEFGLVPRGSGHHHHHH
Described as above.

In experiment [5] the target is T5, human Delta-like 1 (DSL-EGF1-4 fragment) (human, UniProt O00548 18-368, limits assumed).
T5 construct: domain: DSL-EGF1-4; Recombinant purified Notch ligand; also called human DLL1; hDLL1
T5 sequence (looked up): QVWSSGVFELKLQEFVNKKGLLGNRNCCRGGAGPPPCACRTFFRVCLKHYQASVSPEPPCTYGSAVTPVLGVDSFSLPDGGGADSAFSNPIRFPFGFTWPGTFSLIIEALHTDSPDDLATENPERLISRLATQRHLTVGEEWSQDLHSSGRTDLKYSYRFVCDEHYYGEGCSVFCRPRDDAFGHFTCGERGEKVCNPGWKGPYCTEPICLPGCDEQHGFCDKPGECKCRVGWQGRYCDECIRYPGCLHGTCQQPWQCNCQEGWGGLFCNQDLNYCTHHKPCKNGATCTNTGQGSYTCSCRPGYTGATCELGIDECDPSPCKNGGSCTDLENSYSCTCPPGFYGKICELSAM
The experiment is described as above.

The target in experiment [6] is T6, murine Delta-like 4 (DSL-EGF1-4 fragment) (mouse, UniProt Q9JI71 27-366, limits assumed).
T6 construct: domain: DSL-EGF1-4; Recombinant purified Notch ligand; also called murine DLL4; mouse DLL4
The experiment is described as above.

Experiment [7] deals with T7, Human Jag1-DSL-EGF1-4 (human, UniProt P78504 34-377).
T7 construct: Secreted protein from BEVS cells; also called human Jagged1; hJag1; not shown: TEV protease cleavage site and 6-His tag at the C-terminus
Put plainly: SPR (BIAcore T200), IgG1 captured, ligand as analyte, 25 C.

In experiment [8] the target is T8, Murine Jag1-DSL-EGF1-4 (mouse, UniProt Q9QXX0 34-377).
T8 construct: also called murine Jagged1; mouse Jagged1
The description is as above.

Experiment [9] has as its target T7, Human Jag1-DSL-EGF1-4. The experiment can be described thus: SPR (BIAcore-3000), IgG captured, Jag DSL-EGF1-4 as analyte, 25 C.
The target in experiment [10] is T9, purified Jag1 extracellular domain protein fragment (Homo sapiens (Human), UniProt P78504 34-377).
T9 construct: not shown: C-terminal TEV protease cleavage site and 6-His tag of the human Jag1-DSL-EGF1-4 antigen
The experiment can be described thus: BIAcore (SPR), purified Jag1 extracellular domain fragment. On the technique in general: In SPR one partner is held on a chip, and binding of the other changes the refractive index at the surface.

Experiment [11] has as its target T8, Murine Jag1-DSL-EGF1-4. Put plainly: SPR (BIAcore-3000), IgG captured, Jag DSL-EGF1-4 as analyte.
The target of experiment [12] is T7, Human Jag1-DSL-EGF1-4. The experiment can be described thus: ELISA on human Jagged1 (Jag-1 bars), OD450 nm.
For experiment [13], the target named is T2, Human Jag2-DSL-EGF1-4. Put plainly: SPR (BIAcore-3000), IgG captured, Jag DSL-EGF1-4 as analyte, 25 C.
The target in experiment [14] is T4, Murine Jag2-DSL-EGF1-4. The description is as above.
Experiment [15] has as its target T3, human Delta-like 4 (DSL-EGF1-4 fragment). Put plainly: SPR (BIAcore T200), IgG1 captured, ligand as analyte.
Experiment [16] concerns the target T6, murine Delta-like 4 (DSL-EGF1-4 …). The description is as above.
In experiment [17] the target is T2, Human Jag2-DSL-EGF1-4. Put plainly: SPR (BIAcore T200), IgG1 captured, ligand as analyte, 25 C.
Experiment [18] concerns the target T4, Murine Jag2-DSL-EGF1-4. The experiment is described as above.
Experiment [19] concerns the target T1, murine Delta-like 1 (DSL-EGF1-4 …). The experiment can be described thus: SPR (BIAcore T200), IgG1 captured, ligand as analyte; value marked * (asterisk not explained).
Experiment [20] has as its target T5, human Delta-like 1 (DSL-EGF1-4 fragment). The description is as above.

B1: Antibody A-2 (antibody, human IgG1, V domains shown)
VH: EVQLVESGGGLVQPGGSLRLSCAASGFTFSNYGIHWVRQAPGKGLEWVGWITGNGGYSDYADSVKGRFTISADTSKNTAYLQMNSLRAEDTAVYYCARAGSWFAYWGQGTLVTVSS
VL: DIQMTQSPSSLSASVGDRVTITCRASQDVSTAVAWYQQKPGKAPKLLIYSASFLYSGVPSRFSGSGSGTDFTLTISSLQPEDFATYYCQQSYTTPPTFGQGTKVEIK
notes: also called anti-Jagged1 antibody A-2
For orientation: Kd means the constant that tells how readily two partners part at equilibrium. A high value points to lower affinity. The koff is the first-order rate constant of dissociation. Low values mean a long-lived complex, high ones a short-lived complex. The term kon denotes the second-order rate constant of association. Regarding B1, the binding result (in experiment [1]; with Human Jag2-DSL-EGF1-4 [2]; in experiment [3]; in the experiment with Murine Jag2-DSL-EGF1-4 [4]; in experiment [5]; in experiment [6]) was “no binding” in each case. Moreover, the Kd was 382 pM with Human Jag1-DSL-EGF1-4 [7], 150 pM with Murine Jag1-DSL-EGF1-4 [8] and 300 pM with Human Jag1-DSL-EGF1-4 [9]. Besides, the results for the koff in the experiment with Human Jag1-DSL-EGF1-4 [7], with Murine Jag1-DSL-EGF1-4 [8] and in the experiment with Human Jag1-DSL-EGF1-4 [9] were 9.23e-05 s⁻¹, 5.77e-05 s⁻¹ and 7.1e-05 s⁻¹, respectively. The on-rate (kon) is 242000 M⁻¹ s⁻¹ in the experiment with Human Jag1-DSL-EGF1-4 [7], 385000 M⁻¹ s⁻¹ in the experiment with Murine Jag1-DSL-EGF1-4 [8] and 230000 M⁻¹ s⁻¹ with Human Jag1-DSL-EGF1-4 [9].

B2: Antibody A-1 S101A (antibody, V domains shown)
VH: EVQLVESGGGLVQPGGSLRLSCAASGFTFSNYGIHWVRQAPGKGLEWVGWITPDGGYTDYADSVKGRFTISADTSKNTAYLQMNSLRAEDTAVYYCARAGALFAYWGQGTLVTVSS
VL: DIQMTQSPSSLSASVGDRVTITCRASQDVSTAVAWYQQKPGKAPKLLIYSASFLYSGVPSRFSGSGSGTDFTLTISSLQPEDFATYYCQQYYTTATTFGQGTKVEIK
notes: Mutant of A-1 expressed in mammalian cells; also called A-1 G100, S101A
Consider B2, for which, in experiment [10], the Kd came out at 4620 pM, the koff was 0.000675 s⁻¹ and the on-rate (kon) is 146000 M⁻¹ s⁻¹.

B3: Antibody B (antibody, V domains shown)
VH: EVQLVESGGGLVQPGGSLRLSCAASGFTFTSYDIHWVRQAPGKGLEWVGGISPADGDTDYANSVKGRFTISADTSKNTAYLQMNSLRAEDTAVYYCARNDYDVRSVGSGMDYWGQGTLVTVSS
VL: DIQMTQSPSSLSASVGDRVTITCRASQDVSTAVAWYQQKPGKAPKLLIYSASFLYSGVPSRFSGSGSGTDFTLTISSLQPEDFATYYCQQSYTTPPTFGQGTKVEIK
notes: Anti-Jagged2 antibody, human IgG1; also called parental antibody of antibody B-3
As to B3, in the experiment with Murine Jag1-DSL-EGF1-4 [11], the binding result is listed as “no binding”. Besides, the binding result with Human Jag1-DSL-EGF1-4 [12] is “no binding”. In the experiment with Human Jag2-DSL-EGF1-4 [13], this molecule yielded a Kd of 1000 pM, an off-rate (koff) of 0.0026 s⁻¹ and a kon of 2.5e+06 M⁻¹ s⁻¹. Further, in the experiment with Murine Jag2-DSL-EGF1-4 [14], the Kd came to 1000 pM, the koff was determined as 0.0026 s⁻¹ and the on-rate (kon) was found to be 2.5e+06 M⁻¹ s⁻¹.

B4: Antibody A-1 (antibody, human IgG1, kappa, V domains shown)
VH: EVQLVESGGGLVQPGGSLRLSCAASGFTFSNYGIHWVRQAPGKGLEWVGWITPDGGYTDYADSVKGRFTISADTSKNTAYLQMNSLRAEDTAVYYCARAGSLFAYWGQGTLVTVSS
VL: DIQMTQSPSSLSASVGDRVTITCRASQDVSTAVAWYQQKPGKAPKLLIYSASFLYSGVPSRFSGSGSGTDFTLTISSLQPEDFATYYCQQYYTTATTFGQGTKVEIKR
For the molecule B4, binding in experiment [10] was characterised by a dissociation constant (Kd) of 799 pM.

B5: Antibody B-3 (antibody, human IgG1, V domains shown)
VH: EVQLVESGGGLVQPGGSLRLSCAASGFTFTSYDIHWVRQAPGKGLEWVGGISPADGDTDYANSVKGRFTISADTSKNTAYLQMNSLRAEDTAVYYCARNDYDVRFVGSGMDYWGQGTLVTVSS
VL: DIQMTQSPSSLSASVGDRVTITCRASQDVSTAVAWYQQKPGKAPKLLIYSASFLYSGVPSRFSGSGSGTDFTLTISSLQPEDFATYYCQQSFTAPPTFGQGTKVEIK
notes: also called anti-Jagged2 antibody B-3; anti-Jag2 B-3
Turning to B5, the binding result in experiment [15] and in experiment [16] was “no binding” throughout. Also, the Kd in the experiment with Human Jag2-DSL-EGF1-4 [17] stood at 41 pM; in the experiment with Murine Jag2-DSL-EGF1-4 [18], 57.1 pM; in experiment [19], 72300 pM; in experiment [20] it was 349000 pM; in the experiment with Murine Jag2-DSL-EGF1-4 [14], 300 pM. For the same molecule, the figures for the off-rate constant (koff) with Human Jag2-DSL-EGF1-4 [17], with Murine Jag2-DSL-EGF1-4 [18] and with Murine Jag2-DSL-EGF1-4 [14] were 0.000188 s⁻¹, 4.4e-05 s⁻¹ and 0.000175 s⁻¹, respectively. Besides, the kon with Human Jag2-DSL-EGF1-4 [17] was 4.58e+06 M⁻¹ s⁻¹; with Murine Jag2-DSL-EGF1-4 [18], 771000 M⁻¹ s⁻¹; with Murine Jag2-DSL-EGF1-4 [14], 580000 M⁻¹ s⁻¹.
